Measurements published in paper PMC7591906, “pHLIP ICG for delineation of tumors and blood flow during fluorescence-guided surgery” (Scientific Reports, 2020).
Peptide text beside a SMILES is read from it. * marks the point of attachment. X1 = CC1(C)C(/C=C/C=C/C=C/C=C2/N(CCCCCC(=O)NCCN3C(=O)CC(*)C3=O)c3ccc4ccccc4c3C2(C)C)=[N+](CCCCS(=O)(=O)[O-])c2ccc3ccccc3c21

Experiments:
[1] = Pharmacological safety assessment on the central nervous system (FOB) in rats (GLP); type: in vivo, Sprague Dawley rats; settings: single i.v. bolus 0.218, 0.248, 3.72 and 7.44 mg/kg, up to 24 h post-dose
Method: The objective of this GLP study performed at CRL was to evaluate the pharmacological effects of pHLIP ICG on the central nervous system following a single i.v. bolus injection in rats.
Functional observation battery (FOB) tests were performed once prior to dosing and again at 5 minutes, 3 and 24 hours post-dose and included the following assessments: palpebral closure, eye prominence, pupil size, pupillary response, lacrimation, salivation, body tone, extensor thrust, pinna reflex, tactile reflex, overall animal reactivity, auricular startle, air righting reflex, body temperature (rectal). Additional evaluations consisted of mortality and clinical observations.

[2] = pH-dependent insertion into POPC liposomes (circular dichroism at 222 nm); type: physicochemical; settings: 5 µM pHLIP ICG, 750 µM POPC liposomes, CD 222 nm, 25.0°C, Henderson-Hasselbalch fit
Method: POPC (1-palmitoyl-2-oleoyl-sn-glycero-3-phosphocholine, Avanti Polar Lipids, Inc.) liposomes were used in biophysical measurements to mimic cell membranes and investigate the pHLIP ICG interactions with lipid bilayers. Large unilamellar vesicles (LUVs) were prepared by extrusion. POPC dissolved in chloroform was desolvated in a rotary evaporator and placed under high vacuum for 2 hours to create a phospholipid film. Lipids were then rehydrated in phosphate buffer (pH8) and repeatedly extruded through membranes with a pore size of 100 nm to make LUVs.
Circular dichroism (CD) measurements were employed to monitor the pH-dependent insertion of pHLIP ICG into the membrane of POPC liposomes and the formation of helical structure. […] CD spectra were recorded from 200 to 260 nm with steps of 1 nm. The pH-dependent insertion of pHLIP ICG into the lipid bilayer of POPC liposomes was studied by monitoring the changes in the molar ellipticity (measured in millidegrees) at 222 nm as a function of pH. After the addition of aliquots of citric acid, the pHs of solutions containing 5 μM pHLIP ICG and 750 µM POPC liposomes were measured using an Orion PerHecT ROSS Combination pH Micro Electrode and an Orion Dual Star pH and ISE Benchtop Meter before and after each spectrum measurement to ensure that equilibrium is achieved. […]

[3] = Imaging of blood vessels in pigs; type: in vivo; settings: i.v. 0.052 + 0.12 + 0.24 mg/kg, Stryker 1688 AIM and SPY-PHI
Method: Pigs (50 kg) received pHLIP ICG dissolved in PBS or PBS containing 5% Ethanol. Three doses of pHLIP ICG were administered (dose level 1 is 0.052 mg/kg of pHLIP ICG, dose level 2 is an additional administration of 0.12 mg/kg of pHLIP ICG and dose level 3 is an additional administration of 0.24 mg/kg of pHLIP ICG). Each dose was injected intravenously in one bolus followed by a saline flush. Endoscopical and exoscopical imaging was performed at the same time and up to 2 hrs after pHLIP ICG administration. Endoscopic imaging was carried out using the Stryker 1688 system with the L11 light source (808 nm excitation) and adjustable gain. […] Images and video were recorded on a Stryker Connected OR Hub device. […] The overlay mode captures an NIR frame and a white light frame and combines the two to allow surgeons to have the best fluorescence reference (green) while still operating. […] The ENV mode contains the white light frame data in a black/white mode and overlays the fluorescence signal in green to provide a hybrid mode that allows a higher signal-to-noise ratio view of the fluorescence image while still retaining enough of a view of the surrounding tissue to allow the surgeon to continue to operate. The SPY-PHI system has three infrared imaging modes: Overlay, Contrast, and CSF (color-segmented fluorescence). […]

[4] = tested on: MDA-MB-231, 4T1, A549, LLC, M4A4, HeLa, UM-UC3 and LNCaP tumors; experiment: Tumor targeting, NIR fluorescence imaging in different tumor models; type: in vivo, athymic female nude mice; settings: 24 h after single i.v. 0.5 mg/kg, 8 tumor models, Stryker clinical imaging system, skin removed
Method: Targeting of murine and human tumors was shown in 8 different tumor models in athymic female nude mice (strain Hsd Athymic Nude-Foxn1nu) ranging in age from 5 to 6 weeks (obtained from Envigo RMS, Inc). The following tumors were established by subcutaneous injection of 1 x 10^6 cells/0.1 ml/flank in flanks of athymic nude mice: HeLa (humans cervical adenocarcinoma), M4A4 (human epithelial carcinoma), 4T1 (murine breast tumor), A549 (human lung carcinoma), LLC (murine Lewis Lung carcinoma), UM-UC3 (human urinary bladder cancer), and 4 x 10^6 cells/0.1 ml/flank of LNCaP tumor (human prostate cancer). Human MDA-MB-231 (breast adenocarcinoma) tumors were established by injections of 1 x 10^6 cells/0.05 ml in the mammary fat pad. […] Finally, surgery was carried out under fluorescence-guidance to remove tumor and to image the tumor bed using the Stryker SPY-PHI handheld clinical imaging system.

## CC(C)C[C@H](NC(=O)[C@H](Cc1ccc(O)cc1)NC(=O)[C@H](C)NC(=O)[C@H](CCCNC(=N)N)NC(=O)[C@H](Cc1c[nH]c2ccccc12)NC(=O)[C@@H]1CCCN1C(=O)[C@H](CC(N)=O)NC(=O)[C@H](CCC(N)=O)NC(=O)[C@H](CC(=O)O)NC(=O)[C@H](CC(=O)O)NC(=O)[C@H](CSC1CC(=O)N(CCNC(=O)CCCCCN2/C(=C/C=C/C=C/C=C/C3=[N+](CCCCS(=O)(=O)[O-])c4ccc5ccccc5c4C3(C)C)C(C)(C)c3c2ccc2ccccc32)C1=O)NC(=O)[C@H](C)N)C(=O)N[C@@H](CC(=O)O)C(=O)N[C@@H](CC(C)C)C(=O)N[C@@H](CC(C)C)C(=O)N[C@@H](Cc1ccccc1)C(=O)N1CCC[C@H]1C(=O)N[C@H](C(=O)N[C@@H](CC(=O)O)C(=O)N[C@H](C(=O)N[C@@H](CC(C)C)C(=O)N[C@@H](CC(C)C)C(=O)N[C@@H](CC(C)C)C(=O)N[C@@H](CC(=O)O)C(=O)N[C@@H](CC(C)C)C(=O)N[C@@H](CC(C)C)C(=O)N[C@@H](Cc1c[nH]c2ccccc12)C(=O)N[C@@H](C)C(=O)O)[C@@H](C)O)[C@@H](C)O (stereo partly shown) [pHLIP ICG] (H-AC(X1)DDQNPWRAYLDLLFPTDTLLLDLLWA-OH)
[1]
  Effect on the central nervous system (FOB): had no observed effect on the central nervous system
[2]
  Midpoint of the transition (pK) of insertion into liposomes: 6.3 pH
[3]
  Visibility of illuminated blood vessels: clearly visible at 2 h post-injection
[4]
  Tumor targeting: Excellent tumor targeting
